The values that follow come from patent publication US20220340673A1 (HARBOUR BIOMED SUZHOU, published 2022).

Test [1] deals with T1, human BCMA on cells (HEK293T/huBCMA; NCI-H929) (human, UniProt Q02223 1-184).
T1 construct: whole, on cells; also called human BCMA molecules on NCI-H929 cell line
T1 sequence (looked up): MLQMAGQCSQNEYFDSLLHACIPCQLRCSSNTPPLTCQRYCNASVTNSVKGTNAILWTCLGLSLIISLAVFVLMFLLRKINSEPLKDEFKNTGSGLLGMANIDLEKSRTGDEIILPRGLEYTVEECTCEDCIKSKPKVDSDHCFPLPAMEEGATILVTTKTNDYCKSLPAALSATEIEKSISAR
Put plainly: FACS on HEK293T cell strain overexpressing human BCMA [D]. The protocol: (§1) This example was conducted to study the binding activity of anti human BCMA HCAb monoclonal antibodies to human and cynomolgus monkey BCMA in vitro. HEK293T cell strain (HEK293T/huBCMA, Beijing Kang yuan) overexpressing human BCMA, HEK293T cell strain (HEK293T/cynoBCMA, Beijing Kang yuan) overexpressing cynomolgus monkey BCMA and NCI- H929 cell line (ATCC® CRL-9068TM) highly expressing human BCMA were used for antibody binding assay at cellular level. Briefly, HEK293T/huBCMA cells and HEK293T/cynoBCMA cells were digested and resuspended with DMEM complete medium, and NCI-H929 cell suspensions were collected by resuspension with DMEM complete medium. The density of the three cells was adjusted to 1×10⁶ cells/mL, respectively. The cells were inoculated at 100 μL cells/well in 96 well V-bottom plates (Corning, Cat#: 3894), followed by the addition of test antibodies at 100 μL/well, which is gradient diluted at 3 folds of the concentration with 2 folds of the final concentration. Cells were incubated at 4° C. for 1 hours in the dark. Afterwards, the cells were washed twice with 100 μL/well of pre-cooled PBS, centrifuged at 500 g for 5 min at 4° C. and followed by discarding the supernatant. […] Finally, the cells were resuspended with 200 μL/well of pre-cooled PBS and the fluorescent luminescence signal values were read by using BD FACS CANTOII.

Test [2] has as its target T2, human BCMA protein with Fc Tag (ACRO, Cat#: BC7-H5254) (human, UniProt Q02223 1-54).
T2 construct: Bought reagent coated on the ELISA plate; not shown: Fc tag of the bought protein
T2 sequence (looked up): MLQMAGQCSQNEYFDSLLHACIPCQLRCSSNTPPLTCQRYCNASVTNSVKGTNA
The experiment in a line: ELISA, plate coated with human BCMA-Fc; antibody blocks the binding of biotinylated human BAFF [B]. As to the method:
This example was conducted to evaluate the blockage ability of anti-human BCMA HCAb monoclonal antibody to the binding of human BCMA (ACRO, BCA-H522y-100 μg) with ligand BAFF protein (ACRO, BAF-H5248-50 μg). The BAFF protein was biotinylated by using a biotinylation kit (ThermoFisher, A39257, EZ-Link Sulfo-NHS-LC-Biotin) according to the instructions. The plates (Corning, Cat#: 9018) were coated with 1 μg/mL of human BCMA protein with Fc Tag (ACRO, Cat#: BC7-H5254) overnight. The plates were washed for 3 times with PBST, added with 2% BSA and then sealed at room temperature for 1 hour. The plates were washed with PBST for 3 times, and added with test antibody gradient diluted at 3 folds concentration 100 μL/well, with an initial concentration of 50 nM. After being incubated for 1h, the supernatant was discarded and 0.5 μg/mL of biotinylated human BAFF protein (prepared according to conventional methods in the art) was added to the plates at 100 μL/well. The plates were incubated at room temperature for 1 h and discarded the supernatant. Streptavidin-coupled HRP (Bio-RAD, Cat#: 1610380) with 1: 4000 diluted was added at 100 μL/well. The plates were incubated for 1 h at room temperature and washed with PBST for 3 times. […] OD450 values were read by using Enspire (Perkin Elmer).

Test [3] deals with T1, human BCMA on cells (HEK293T/huBCMA; …). Put plainly: FACS on NCI-H929 cell line [D]. The protocol: as §1
In test [4] the target is T3, cynomolgus monkey BCMA on cells (HEK293T/cynoBCMA) (cynomolgus monkey, UniProt A0A2K5UD97 1-183).
T3 construct: whole, on cells
The experiment in a line: FACS on HEK293T cell strain overexpressing cynomolgus monkey BCMA [D]. The protocol: as §1

The target of test [5] is T1, human BCMA on cells (HEK293T/huBCMA; …). The experiment in a line: FACS on NCI-H929 cell line [B]. As to the method: To study the binding activity of the BCMA arm of the BCMA×CD3 bispecific antibody to human BCMA, NCI-H929 cell line with highly expressed BCMA was used for binding experiments with human BCMA at cellular level. Briefly, NCI-H929 cell suspensions were collected. The cell density was adjusted to 1×10⁶ cells/mL, and the cells were inoculated in 96 well V-bottom plates at 100 μL cells/well (Corning, Cat#: 3894), followed by the addition of test antibodies at 100 μL/well, which is gradient diluted at 3 folds of the concentration with 2 folds of the final concentration. Cells were incubated at 4° C. for 2 hours in the dark. Afterwards, cells were washed twice with 100 μL/well of pre-cooled PBS, centrifuged at 500 g for 5 min at 4° C., and followed by discarding the supernatant. 100 μL/well of fluorescent secondary antibody (Alexa Fluor 488-conjugated AffiniPure Goat Anti-Human IgG, Fcγ Fragment Specific, Jackson, Cat#:109-545-06, 1:500 dilution) was added and incubated at 4° C. for 1 hour in the dark. Cells were washed twice with 100 μL/well of pre-cooled PBS, centrifuged at 500 g, 4° C. for 5 min, and followed by discarding the supernatant. Finally, the cells were resuspended with 200 μL/well of pre-cooled PBS, and the fluorescence luminescence signal values were read by BD FACS CANTOII.

T3 sequence (A0A2K5UD97 entry or part of it): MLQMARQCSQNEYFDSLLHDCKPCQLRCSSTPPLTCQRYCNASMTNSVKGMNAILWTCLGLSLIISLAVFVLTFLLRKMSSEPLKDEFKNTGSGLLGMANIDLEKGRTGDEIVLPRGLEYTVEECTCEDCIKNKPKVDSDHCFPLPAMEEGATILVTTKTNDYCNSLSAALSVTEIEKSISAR

B1: positive control 1, PR000274 (anti-BCMA antibody CA8-J6M0 hIgG1) (antibody, V domains shown)
VH: QVQLVQSGAEVKKPGSSVKVSCKASGGTFSNYWMHWVRQAPGQGLEWMGATYRGHSDTYYNQKFKGRVTITADKSTSTAYMELSSLRSEDTAVYYCARGAIYDGYDVLDNWGQGTLVTVSS
VL: DIQMTQSPSSLSASVGDRVTITCSASQDISNYLNWYQQKPGKAPKLLIYYTSNLHSGVPSRFSGSGSGTDFTLTISSLQPEDFATYYCQQYRKLPWTFGQGTKLEIKR
notes: Full-length hIgG1 control antibody
As to B1, the EC50 in test [1] stood at 4.07 nM; in test [3], 10.8 nM; in test [4] it was 4.56 nM. Further, the concentration for half-maximal inhibition (IC50) in test [2] turned out to be 4.36 nM.

B2: BCMA x CD3 bispecific antibody PR002299 (bispecific antibody, human IgG1, lambda, L234A L235A)
heavy 1: EVQLLESGGGLVQPGGSLRLSCAASGFTFSTYAMNWVRQAPGKGLEWVSRIRSKYNNYATYYADSVKDRFTISRDDSKSTLYLQMNSLRAEDTAVYYCVRHGNFGNSYVSWFAYWGQGTLVTVSSASTKGPSVFPLAPSSKSTSGGTAALGCLVKDYFPEPVTVSWNSGALTSGVHTFPAVLQSSGLYSLSSVVTVPSSSLGTQTYICNVNHKPSNTKVDKKVEPKSCDKTHTCPPCPAPEAAGGPSVFLFPPKPKDTLMISRTPEVTCVVVDVSHEDPEVKFNWYVDGVEVHNAKTKPREEQYNSTYRVVSVLTVLHQDWLNGKEYKCKVSNKALGAPIEKTISKAKGQPREPQVYTLPPCREEMTKNQVSLWCLVKGFYPSDIAVEWESNGQPENNYKTTPPVLDSDGSFFLYSKLTVDKSRWQQGNVFSCSVMHEALHNHYTQKSLSLSPGK
light: QAVVTQEPSLTVSPGGTVTLTCRSSTGAVTTSNYANWVQQKPGQAPRGLIGGTNKRAPWTPARFSGSLLGDKAALTLLGAQPEDEAEYFCALWYSNLWVFGGGTKLTVLGQPKAAPSVTLFPPSSEELQANKATLVCLISDFYPGAVTVAWKADSSPVKAGVETTTPSKQSNNKYAASSYLSLTPEQWKSHRSYSCQVTHEGSTVEKTVAPTECS
heavy 2: EVQLLESGGGLVQPGGSLRLSCAASGFTFSSYAMIWVRQAPGKGLEWVSGISESGGSTYYADSVKGRFTISRDNSKNTLYLQMNSLRAEDTAVYFCVKDLDDILTGYYKDYWGQGTLVTVSSRTGGGGSKLEVQLLESGGGLVQPGGSLRLSCAASGFTFSSYAMIWVRQAPGKGLEWVSGISESGGSTYYADSVKGRFTISRDNSKNTLYLQMNSLRAEDTAVYFCVKDLDDILTGYYKDYWGQGTLVTVSSASEPKSSDKTHTCPPCPAPEAAGGPSVFLFPPKPKDTLMISRTPEVTCVVVDVSHEDPEVKFNWYVDGVEVHNAKTKPREEQYNSTYRVVSVLTVLHQDWLNGKEYKCKVSNKALGAPIEKTISKAKGQPREPQVCTLPPSREEMTKNQVSLSCAVKGFYPSDIAVEWESNGQPENNYKTTPPVLDSDGSFFLVSKLTVDKSRWQQGNVFSCSVMHEALHNHYTQKSLSLSPGK
As for B2, the EC50 in test [5] came out at 57.2 nM.

B3: anti-human BCMA HCAb monoclonal antibody PR001046 (antibody, human IgG1, V domains shown)
VH: EVQLVETGGGLIQPGGSLRLSCAASGFTVSDNYMTWVRQAPGKGLEWVSVIFSGGNTYYADSVKGRFTISRDNAKNTLYLQMNSLRAEDTALYYCARRNYDDTRGTDVFDIWGQGTMVTVSS
notes: also called PRO01046; HBM1005P63B7
As for B3, the figures for the EC50 in test [1], in test [3] and in test [4] were 0.213 nM, 1.53 nM and 0.564 nM, respectively. In test [2], this molecule yielded a concentration for half-maximal inhibition (IC50) of 2.94 nM.

A word on the EC50: it is the concentration giving half of the maximal effect. For orientation: IC50 means the concentration that inhibits the measured activity by half.
